For this assay, the target named is GST-NTF2L (GST-tagged NTF2-like domain of G3BP1) (human). Nature of the assay: SPR. (In SPR one partner is held on a chip, and binding of the other changes the refractive index at the surface.)

For orientation: Kd means the concentration at which binding is half-saturated. A high value points to a looser complex.

Sequence of GST-NTF2L (GST-tagged NTF2-like domain of G3BP1) (human) (chain, as listed by the source): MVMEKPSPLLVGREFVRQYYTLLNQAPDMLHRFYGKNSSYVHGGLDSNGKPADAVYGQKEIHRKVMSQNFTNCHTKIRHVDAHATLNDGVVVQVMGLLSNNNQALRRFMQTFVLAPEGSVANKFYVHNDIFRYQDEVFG

As for MALHSPQYIFGDFSPDEFNQFFVTP [USP10 (1–25) peptide], binding was put at a Kd of 110 nM.
For LTFGDFDEHEVDALASGITFGDFDD [SFV nsP3 (449–473) peptide] the value was 2500 nM.

Values taken from paper PMC11044841 (2024).
